17 molecules from patent publication US20240279281A1, “Peptide Inhibitors of Interleukin-23 Receptor” (Janssen Pharmaceutica NV, priority 2023, published 2024) can be followed below.

Starred links: 1 amine or outer side, 2 acyl side, 3 side chain; linkers in the order of their positions; H or OH if unused. Positions of bridges follow the written chain, without caps; N, C: chain ends. Non-standard residues stand in square brackets, D forms with d. No end group written: not given here. *: point of attachment. X1 = 3‑(7-(3-acetamidophenyl)-1H-indol-3-yl)‑2‑aminopropanoic acid, CC(=O)Nc1cccc(-c2cccc3c(CC(N[*:1])C(=O)[*:2])c[nH]c23)c1; X3 = 4‑(2-(4-(2-amino-2-carboxyethyl)phenoxy)ethyl)‑4‑methylmorpholin‑4‑ium, C[N+]1(CCOc2ccc(CC(N[*:1])C(=O)[*:2])cc2)CCOCC1; X10 = 2‑amino‑3‑(4-(2-guanidinoethoxy)phenyl)propanoic acid, N=C(N)NCCOc1ccc(CC(N[*:1])C(=O)[*:2])cc1; X7 = 2‑amino‑3‑(5-methylpyridin-3-yl)propanoic acid, Cc1cncc(CC(N[*:1])C(=O)[*:2])c1; Trp(7-(3-AcNH-Ph)) = CC(=O)Nc1cccc(-c2cccc3c(C[C@H](N)C(=O)O)c[nH]c23)c1; 2Nal(6-OH) = N[C@@H](Cc1ccc2cc(O)ccc2c1)C(=O)O; Trp(7-Me) = Cc1cccc2c(C[C@H](N)C(=O)O)c[nH]c12; dLys(Me3) = C[N+](C)(C)CCCC[C@@H](N)C(=O)O; AEF = NCCOc1ccc(C[C@H](N)C(=O)O)cc1; 3Pal = N[C@@H](Cc1cccnc1)C(=O)O; Pen = CC(C)(S)[C@H](N)C(=O)O; αMeC = C[C@](N)(CS)C(=O)O; Thp = NC1(C(=O)O)CCOCC1; Abu = CC[C@H](N)C(=O)O; Propionyl = CCC(=O)*; Sar = CNCC(=O)O

This assay addresses T1, interleukin-23 receptor (IL-23R), Q5VWK5.
T1 chain: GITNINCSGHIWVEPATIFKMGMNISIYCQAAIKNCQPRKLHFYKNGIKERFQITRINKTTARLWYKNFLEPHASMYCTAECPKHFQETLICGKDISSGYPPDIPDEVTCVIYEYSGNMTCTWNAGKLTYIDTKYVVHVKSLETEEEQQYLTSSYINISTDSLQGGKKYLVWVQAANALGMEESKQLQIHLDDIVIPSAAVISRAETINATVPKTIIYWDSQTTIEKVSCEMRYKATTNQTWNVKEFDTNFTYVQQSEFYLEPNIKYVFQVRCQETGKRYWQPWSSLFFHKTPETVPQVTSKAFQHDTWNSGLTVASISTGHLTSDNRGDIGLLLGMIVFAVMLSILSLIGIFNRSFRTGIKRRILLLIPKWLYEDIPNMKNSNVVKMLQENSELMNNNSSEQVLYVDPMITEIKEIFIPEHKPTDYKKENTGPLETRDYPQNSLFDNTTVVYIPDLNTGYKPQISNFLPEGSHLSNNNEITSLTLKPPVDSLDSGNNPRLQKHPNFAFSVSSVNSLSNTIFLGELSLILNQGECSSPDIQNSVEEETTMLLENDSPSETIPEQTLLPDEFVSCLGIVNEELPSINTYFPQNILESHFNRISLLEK
Put plainly: cell-based or functional assay.

B1: SEQ ID NO: 92 (peptide)
peptide: R[Pen]NT[Trp(7-Me)]K(Ac)[Pen][2‑amino‑3‑(4-(2-aminoethoxy)phenyl)propanoic acid][2‑amino‑3‑(6-hydroxynaphthalen-2-yl)propanoic acid][Thp]EN[3Pal][Sar]K
modifications: disulfide 2-7 (inferred); not fully specified (residue 15); ends not checked; also: K15: lipidated lysine, lipid not given here
In turn, B1 registered an IL23R Reporter Assay IC50 of less than 0.01 µM and a PBMC pSTAT3 IC50 of less than 0.1 nM.

B2: SEQ ID NO: 10 (peptide)
peptide: [dK](Propionyl)[Abu]NTWQC[AEF][2Nal(6-OH)][Thp]CN[3Pal][Sar]
modifications: ends and bridges not checked
The molecule B2 yielded an IL23R Reporter Assay IC50 of less than 0.01 µM and a PBMC pSTAT3 IC50 of less than 10 pM.

B3: SEQ ID NO: 120 (peptide)
peptide: R[Pen]NT[Trp(7-Me)]K[Pen][AEF][2Nal(6-OH)][Thp]EN[3Pal][Sar]
modifications: disulfide 2-7 (inferred); ends not checked; also: K6: lipidated lysine, lipid not given here
The molecule B3 yielded an IL23R Reporter Assay IC50 of more than 0.1 µM and a PBMC pSTAT3 IC50 of less than 1 nM.

B4: SEQ ID NO: 130 (peptide)
peptide: [Pen]NT[Trp(7-Me)]K[Pen][AEF][2Nal(6-OH)][Thp]K(Ac)N[3Pal][Sar]
modifications: disulfide 1-6 (inferred); ends not checked; also: K5: lipidated lysine, lipid not given here
As to B4, the IL23R Reporter Assay IC50 was more than 0.1 µM and the PBMC pSTAT3 IC50 is less than 1 nM.

B5: SEQ ID NO: 136 (peptide)
peptide: R[Pen]ET[Trp(7-Me)]K(Ac)[Pen][AEF][2Nal(6-OH)][Thp]EN[3Pal][Sar]
modifications: disulfide 2-7 (inferred); ends not checked
For the molecule B5, the IL23R Reporter Assay IC50 was less than 0.01 µM and the PBMC pSTAT3 IC50 was less than 10 pM.

B6: SEQ ID NO: 100 (peptide)
peptide: [Pen]NT[Trp(7-(3-AcNH-Ph))]K(Ac)[Pen][X3][2Nal(6-OH)][Thp]EN[3Pal][Sar]
modifications: disulfide 1-6 (inferred); ends not checked
B6 returned an IL23R Reporter Assay IC50 of less than 0.01 µM and a PBMC pSTAT3 IC50 of less than 10 pM.

B7: SEQ ID NO: 132 (peptide)
peptide: [Pen]NT[X1]K(Ac)[Pen][AEF][2Nal(6-OH)][Thp]EN[3Pal][Sar]
modifications: disulfide 1-6 (inferred); ends not checked
Take B7: the IL23R Reporter Assay IC50 is less than 0.01 µM and the PBMC pSTAT3 IC50 is less than 10 pM.

B8: SEQ ID NO: 95 (peptide)
peptide: [Pen]NT[Trp(7-Me)]K(Ac)[Pen][AEF][2Nal(6-OH)][Thp]KN[3Pal][Sar]
modifications: disulfide 1-6 (inferred); not fully specified (residue 10); ends not checked; also: K10: lipidated lysine, lipid not given here
B8 displayed an IL23R Reporter Assay IC50 of less than 0.01 µM and a PBMC pSTAT3 IC50 of less than 0.1 nM.

B9: SEQ ID NO: 16 (peptide)
peptide: [Pen]NT[X1]K(Ac)[Pen][X10][2‑amino‑3‑(6-hydroxynaphthalen-2-yl)propanoic acid][Thp]EN[X7][Sar]
modifications: ends and bridges not checked
B9 returned an IL23R Reporter Assay IC50 of less than 0.01 µM and a PBMC pSTAT3 IC50 of less than 10 pM.

B10: SEQ ID NO: 1 (peptide)
peptide: [dK](Me3)[Abu]NTWK(Ac)[αMeC][X10][2Nal(6-OH)][Thp]EN[3Pal][Sar]
modifications: ends and bridges not checked
B10 came in with an IL23R Reporter Assay IC50 of less than 0.01 µM.

B11: SEQ ID NO: 91 (peptide)
peptide: K[Pen]NT[Trp(7-Me)]K(Ac)[Pen][2‑amino‑3‑(4-(2-aminoethoxy)phenyl)propanoic acid][2‑amino‑3‑(6-hydroxynaphthalen-2-yl)propanoic acid][Thp]EN[3Pal][Sar]
modifications: disulfide 2-7 (inferred); not fully specified (residue 1); ends not checked; also: K1: lipidated lysine, lipid not given here
For the molecule B11, the IL23R Reporter Assay IC50 was less than 0.01 µM and the PBMC pSTAT3 IC50 was less than 0.1 nM.

B12: SEQ ID NO: 94 (peptide)
peptide: R[Pen]NT[Trp(7-Me)]K(Ac)[Pen][AEF][2Nal(6-OH)][Thp]EN[3Pal][Sar]
modifications: disulfide 2-7 (inferred); ends not checked
B12 came in with an IL23R Reporter Assay IC50 of less than 0.01 µM and a PBMC pSTAT3 IC50 of less than 1 nM.

B13: SEQ ID NO: 98 (peptide)
peptide: [Abu]NTWQC[AEF][2Nal(6-OH)][Thp]EN[3Pal][Sar]
modifications: ends and bridges not checked
As for B13, the IL23R Reporter Assay IC50 is less than 0.01 µM and the PBMC pSTAT3 IC50 was less than 10 pM.

B14: SEQ ID NO: 17 (peptide)
peptide: [dLys(Me3)][Pen]NT[X1]K(Ac)[Pen][5‑(4-(2-amino-2-carboxyethyl)phenoxy)‑N,N,N‑trimethylpentan‑1‑aminium][2‑amino‑3‑(6-hydroxynaphthalen-2-yl)propanoic acid][Thp]EN[X7][Sar]
modifications: ends and bridges not checked
On to B14, for which the IL23R Reporter Assay IC50 is less than 0.01 µM and the PBMC pSTAT3 IC50 is less than 10 pM.

B15: SEQ ID NO: 137 (peptide)
peptide: R[Pen]ET[Trp(7-Me)]K(Ac)[Pen][AEF][2Nal(6-OH)][Thp]EN[3Pal][Sar]
modifications: disulfide 2-7 (inferred); ends not checked
B15: the IL23R Reporter Assay IC50 was less than 0.01 µM and the PBMC pSTAT3 IC50 was less than 10 pM.

B16: SEQ ID NO: 90 (peptide)
peptide: K[Pen]NT[Trp(7-Me)]K(Ac)[Pen][2‑amino‑3‑(4-(2-aminoethoxy)phenyl)propanoic acid][2‑amino‑3‑(6-hydroxynaphthalen-2-yl)propanoic acid][Thp]EN[3Pal][Sar]
modifications: disulfide 2-7 (inferred); not fully specified (residue 1); ends not checked; also: K1: lipidated lysine, lipid not given here
On to B16, for which the IL23R Reporter Assay IC50 is less than 0.01 µM and the PBMC pSTAT3 IC50 is less than 0.1 nM.

B17: SEQ ID NO: 89 (peptide)
peptide: R[Pen]KT[Trp(7-Me)]K(Ac)[Pen][2‑amino‑3‑(4-(2-aminoethoxy)phenyl)propanoic acid][2‑amino‑3‑(6-hydroxynaphthalen-2-yl)propanoic acid][Thp]EN[3Pal][Sar]
modifications: disulfide 2-7 (inferred); not fully specified (residue 3); ends not checked; also: K3: lipidated lysine, lipid not given here
As to B17, the IL23R Reporter Assay IC50 was less than 0.01 µM and the PBMC pSTAT3 IC50 is less than 0.1 nM.
